Measured values reported in US20240309087A1 (SHANGHAI JUNSHI BIOSCIENCES, published 2024).
Read-outs that look alike come from different tables or passages of the source.

T1: recombinant cynomolgus monkey CD112R antigen (cynomolgus monkey, UniProt A0A2K5WVV8 1-322)
T1 construct: bought
T1 sequence: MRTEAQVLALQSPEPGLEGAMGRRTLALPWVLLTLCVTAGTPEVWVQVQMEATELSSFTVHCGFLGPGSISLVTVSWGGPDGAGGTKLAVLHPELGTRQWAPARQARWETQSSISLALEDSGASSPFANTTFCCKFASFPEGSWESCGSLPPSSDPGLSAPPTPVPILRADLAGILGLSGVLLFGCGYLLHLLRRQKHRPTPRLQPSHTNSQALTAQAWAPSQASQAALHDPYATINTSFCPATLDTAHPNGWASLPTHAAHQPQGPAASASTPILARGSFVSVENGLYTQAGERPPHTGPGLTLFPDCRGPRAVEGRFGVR

T2: human CD112R on Jurkat CD112R effector cells (human, UniProt Q6DKI7 1-326)
T2 sequence (looked up): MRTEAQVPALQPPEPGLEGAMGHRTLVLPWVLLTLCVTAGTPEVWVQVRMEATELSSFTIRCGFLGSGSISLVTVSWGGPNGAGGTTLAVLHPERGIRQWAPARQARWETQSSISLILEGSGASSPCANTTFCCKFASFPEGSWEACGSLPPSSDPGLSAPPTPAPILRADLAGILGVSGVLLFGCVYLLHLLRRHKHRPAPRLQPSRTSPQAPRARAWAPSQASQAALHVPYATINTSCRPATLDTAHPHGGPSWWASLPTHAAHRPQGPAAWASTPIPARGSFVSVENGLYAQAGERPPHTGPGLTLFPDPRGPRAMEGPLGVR

T3: human CD112R on CHO-CD112R cells (human, UniProt Q6DKI7 41-326)
T3 construct: whole, on cells; also called hCD112R; PVRIG
T3 sequence (looked up): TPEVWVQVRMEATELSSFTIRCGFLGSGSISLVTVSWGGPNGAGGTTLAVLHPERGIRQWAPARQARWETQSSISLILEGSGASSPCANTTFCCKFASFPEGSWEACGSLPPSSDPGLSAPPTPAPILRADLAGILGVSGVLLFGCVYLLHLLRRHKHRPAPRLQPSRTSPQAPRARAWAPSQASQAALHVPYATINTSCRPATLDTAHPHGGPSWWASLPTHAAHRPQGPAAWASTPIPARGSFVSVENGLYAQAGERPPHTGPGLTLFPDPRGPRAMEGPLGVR

T4: hCD112R mFC recombinant protein (human; murine, UniProt Q6DKI7 41-160)
T4 construct: range 41-160; expressed in 293E cells; also called hCD112R ECD mFC; hCD112R-ECD-mFC; not shown: murine IgG2a Fc domain (MX2-mFc vector)
T4 sequence (looked up): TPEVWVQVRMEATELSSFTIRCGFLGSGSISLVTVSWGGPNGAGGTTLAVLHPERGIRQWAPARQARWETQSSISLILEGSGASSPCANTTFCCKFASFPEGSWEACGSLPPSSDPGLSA

B1: Chi-45 (antibody, V domains shown)
VH: DVKLVESGGGLVKLGGSLKLSCAASGFTFSSYHMSWVRQTPEKRLELVAAINSNVISTYYLDTVKGRFTISRDNAKNTLYLQMSSLKSEDTALYYCARHEDYYGFAMDYWGQGTSVTVSS
VL: SIVMTQTPKFLLVSAGDRVTITCKASQSVSNDVAWYQEKPGQSPKLLMYYVSHRFTGVPDRFTGSGYGTDFTFTINTVQAEDLAVYFCHQAYRSPWTFGGGTKLEIK
notes: chimeric
B2: Chi-54 (antibody, V domains shown)
VH: DVKLVESGGGLVKLGGSLKLSCAASGFTFSSYHMSWIRQTPEKRLELVAAINSNGINTYYLDTVKGRFTISRDNAKNTLYLQMSSLKSEDTALYYCARHEDYYGFAMDYWGQGTSVTVSS
VL: SIVMTQTPKFLLVSAGDRVTITCKASQSVSNDVAWYQQKPGQSPKLLMYYVSNRFTGVPDRFTGSGYGTDFTFTINTVQAEDLAVYFCQQAYRSPWTFGGGTKLEIK
notes: chimeric
B3: Chi-63 (antibody, V domains shown)
VH: DVKLVESGGGLVKLGGSLKLSCAASGFTFSSYHMSWVRQTPEKRLELVAAISRDGDSTYYPDTVKGRFTISRDDAENTLYLQMSSLKSEDTALYYCSRHEDYFGFAMDSWGQGTSVTVSS
VL: SIVMTQTPKFLLVSAGDRVTITCKASQSVTNDVAWYQQKPGQSPKLLMYYVSNHYTGVPDRFIGSGYGTDFTFTISTVQAEDLAVYFCQQAYRSPWTFGGGTKLEIK
notes: chimeric
B4: Chi-36 (antibody, V domains shown)
VH: EVQLQQSGPELVKPGASVRISCKASGYTFTDYNMHWVKQSHGKSLEWIGYIYPYNGGTGHNQNFKSKATLTVDKSSSTAYMEFRSLTSDDSAVYYCAREDFRHEKMDYWGQGTSVTVSS
VL: DIQMTQSPASLSASVGETVTITCRTSDNIYVYLSWYQQKQGKSPQLLVYNAKTLTENVPSRFSGSGSGTQFSLKINSLQPEDFGSYYCQHHYGTPYTFGGGTKLEIK
notes: chimeric
B5: Hu17 (antibody, IgG4, V domains shown)
VH: EVQLVESGGGLVKPGGSLRLSCAASGFTFSSYHMSWVRQAPGKGLELVSAISRDGDSTYYPDTVKGRFTISRDNAKNSLYLQMNSLRAEDTAVYYCSRHEDYFGFAMDSWGQGTLVTVSS
VL: DIQMTQSPSSLSASVGDRVTITCKASQSVSNDVAWYQQKPGKAPKLLIYYVSNRFTGVPSRFSGSGSGTDFTLTISSLQPEDFATYFCQQAYRSPWTFGQGTKLEIK
notes: humanized IgG4
B6: Hu34 (antibody, IgG4, V domains shown)
VH: EVQLVESGGGLVQPGGSLRLSCAASGFTFSSYHMSWVRQAPGKGLELVAAISRDGDSTYYPDTVKGRFTISRDDAENSLYLQMNSLRAEDTAVYYCSRHEDYFGFAMDSWGQGTLVTVSS
VL: DIVMTQSPDSLAVSLGERATINCKASQSVSNDVAWYQQKPGQPPKLLIYYVSHRFTGVPDRFSGSGSGTDFTLTISSLQAEDVAVYFCHQAYRSPWTFGQGTKLEIK
notes: humanized IgG4
B7: Hu33 (antibody, IgG4, V domains shown)
VH: EVQLVESGGGLVQPGGSLRLSCAASGFTFSSYHMSWVRQAPGKGLELVAAISRDGDSTYYPDTVKGRFTISRDDAENSLYLQMNSLRAEDTAVYYCSRHEDYFGFAMDSWGQGTLVTVSS
VL: EIVMTQSPPTLSLSPGERVTLSCKASQSVSNDVAWYQEKPGQAPRLLIYYVSHRFTGIPARFSGSGSGTDFTLTISSLQPEDFAVYYCHQAYRSPWTFGQGTKLEIK
notes: humanized IgG4
B8: Chi-72 (antibody, V domains shown)
VH: DVQLVESGGGLVKLGGSLKLSCVASGFTFSSYHMSWIRQTPEKRLELVAAINSNDINTYYLDTVKGRFTISRDIAKNTLHLQMSSLKSEDTALYYCARHEDYYGFAMDYWGQGTSVTVSS
VL: DIQLTQSPASLSVSVGETVTITCRVSANIYSNLVWYHQRQGKSPQLLVYGGTNLADGVPSRFSGSGSGTQFSLKINSLQSEDFGSYHCQHFWSTPYTFGGGTKLEIK
notes: chimeric

Assays:
[1] = molecular target: T1, recombinant cynomolgus monkey CD112R …; assay: ELISA, coated cynomolgus monkey CD112R
Method: (§1) A plate was coated with a recombinant cynomolgus monkey CD112R antigen (Acrobiosystems, Cat No. PVG-C5259) at a fixed concentration, and the chimeric anti-CD112R antibodies diluted in a gradient (initial concentration: 1 μg/mL, 2.5-fold gradient dilution, 12 concentration gradients in total) were added to bind to the antigen. Horseradish peroxidase (HRP)-conjugated mouse anti-human IgG4 Fc (Southern Biotech, 9200-05) was subjected to a 5000-fold dilution and used as a detection antibody for detection. The color development was performed with 0.1 mg/mL TMB, and finally stopped with 2 M hydrochloric acid. The plate was read at 420 nm/620 nm. EC₅₀ was obtained by fitting with a four-parameter logistic regression (4PL) model.

[2] = molecular target: T2, human CD112R on Jurkat CD112R effector …; assay: cell-based or functional assay
[3] = molecular target: T1, recombinant cynomolgus monkey CD112R …; assay: ELISA, coated cynomolgus monkey CD112R; EC50 Ref/EC50 antibody
Method: as §1

[4] = molecular target: T3, human CD112R on CHO-CD112R cells; assay: FACS on CHO-CD112R cells; EC50 Ref/EC50 antibody
Method: (§2) CHO-CD112R cells (constructed in-house by Junshi, the amino acid sequence of CD112R in the construction of stable cell lines overexpressing CD112R comprises amino acids at positions Met1-Arg326 under NCBI accession No. Q6DKI7) overexpressing human CD112R were incubated with each of the chimeric anti-CD112R antibodies at different concentrations (initial concentration: 50 μg/mL, 5-fold dilution, 12 concentration gradients in total) at 4° C. for 30 min, and then washed and incubated with a fluorescence-labeled secondary antibody at 4° C. for 30 min in the dark. Finally, the cells were collected by using a flow cytometer (BD Canto II), and the fluorescent antibodies bound to the cell surface were detected. Raw data were analyzed by using FlowJo to obtain MFI values, the antibody dose-dependent binding curves were fitted by using GraphPad (FIG. 3, a and b) and EC₅₀ was calculated (Table 3). The positive control and the negative control were Ref (anti-CD112R antibody, University of Colorado, obtained by expression and purification according to the sequences in US20170240613) and anti-KLH hu-IgG4 antibody, respectively.

[5] = molecular target: T3, human CD112R on CHO-CD112R cells; assay: FACS on CHO-CD112R cells
Method: as §2

[6] = molecular target: T4, hCD112R mFC recombinant protein; assay: FACS competition, hCD112R mFc on CHO CD112 cells
In short: (§3)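 CHO cells overexpressing human CD112 were co-incubated 30 min at 4 °C with hCD112R mFc (5 μg/mL) and humanized anti-CD112R antibodies (from 100 μg/mL, 3-fold, 10 points). Bound fusion protein detected with anti-mouse IgG Fc secondary by flow cytometry; IC50 from four-parameter fit of MFI. COM701 served as positive control, anti-KLH hu-IgG4 as negative.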

[7] = molecular target: T4, hCD112R mFC recombinant protein; assay: FACS competition, hCD112R mFc on CHO CD112 cells; IC50 COM701/IC50 antibody
In short: as §3

[8] = molecular target: T2, human CD112R on Jurkat CD112R effector …; assay: cell-based or functional assay; remark: listed apart in the source
[9] = molecular target: T4, hCD112R mFC recombinant protein; assay: ELISA, coated hCD112R-ECD-mFC
In short: (§4)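 Plates coated with hCD112R-ECD-mFC at 1.5 μg/mL; humanized antibodies titrated from 1 μg/mL, 2.5-fold, 12 points. Bound antibody detected with HRP anti-human IgG Fc and TMB, read at 420/620 nm; EC50 from 4PL fit, COM701 and anti-KLH hu-IgG4 as controls.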

[10] = molecular target: T4, hCD112R mFC recombinant protein; assay: ELISA, coated hCD112R-ECD-mFC; EC50 COM701/EC50 antibody
In short: as §4

Row | Binder | EC50 [1] | EC50, CD112R/CD112 reporter [2] | Relative activity (%), EC50 Ref/EC50 antibody [2] | Relative activity (%) [3] | Relative activity (%) [4] | EC50 [5] | IC50 [6] | Relative activity (%) [7] | EC50, CD112R/CD112 reporter [8] | Relative activity (%), EC50 COM701/EC50 antibody [8] | EC50 [9] | Relative activity (%) [10]
1 | B1 | 0.00298 µg/mL | 0.0119 µg/mL | 2710% | 118% | 231% | 0.726 µg/mL |  |  |  |  |  | 
2 | B2 | 0.00327 µg/mL | 0.00746 µg/mL | 4210% | 107% | 3520% | 0.122 µg/mL |  |  |  |  |  | 
3 | B3 | 0.00436 µg/mL | 0.0174 µg/mL | 1490% | 96.1% | 805% | 0.531 µg/mL |  |  |  |  |  | 
4 | B4 | 0.00391 µg/mL | 0.0306 µg/mL | 1060% | 89.6% | 478% | 0.351 µg/mL |  |  |  |  |  | 
5 | B5 |  |  |  |  |  |  | 2.12 µg/mL | 169% | 0.0228 µg/mL | 241% | 0.00418 µg/mL | 136%
6 | B6 |  |  |  |  |  |  | 2.4 µg/mL | 149% | 0.0336 µg/mL | 160% | 0.00368 µg/mL | 162%
7 | B7 |  |  |  |  |  |  | 2.48 µg/mL | 144% | 0.0341 µg/mL | 157% | 0.00348 µg/mL | 174%
8 | B8 |  |  |  |  | 35% | 12.3 µg/mL |  |  |  |  |  | 
